Experimental findings from patent publication US7132278B2, “PAS kinase” (Board of Regents, The University of Texas System, priority 2001, dated 2006) are described below.

Positions count from the first letter of the chain named. Names may count otherwise.

Common to all, as to experiment: PASK kinase assay, 32P incorporation into AMARA peptide substrate
For data set [1], the target named is T1, AMARA peptide (Homo sapiens, UniProt Q96RG2, F1266C).
T1 construct: Compounds are checked for effects on both full length and truncated versions of PASK; His6 (N); made in house; host or cells: baculovirus-infected Sf-9 insect cells
The data set is classed as biochemical. The conditions noted are these: truncated variant vs native enzyme. As for the experimental part:
(§1) Biochemical properties of the Pask enzyme. A recombinant baculovirus was engineered to overexpress human PASK enzyme in cultured insect cells. The enzyme was expressed as a fusion with a His6 tag at its amino terminus such that the recombinant polypeptide could be purified by Ni-affinity chromatography. Routine enzyme preparations were harvested from 0.8 liter of cultured Sf-9 cells. Cells were lysed by dounce homogenization in 50 mM Tris-HCl, pH 8.0, 100 mM NaCl, 0.04% β-mercaptoethanol (“lysis buffer”) and spun at 100,000×G for one hour to remove insoluble debris. Soluble material (˜50 ml) was then applied to a 3 ml bed volume of Ni-affinity resin. Following application and 50× column volume wash, bound material was eluted with storage buffer (50 mM HEPES, pH 7.4, 100 mM NaCl, 1 mM DTT, 1 mM EDTA) supplemented with 250 mM imidazole. Eluted material was sequentially subjected to Mono-Q, anion-exchange chromatography, and eluted with increasing NaCl concentration. Fractions were evaluated by SDS-PAGE to identify PASK enriched fractions, pooled and dialyzed against storage buffer supplemented with 10% glycerol. Typical enzyme preparations yield 0.5 mg of intact PASK enzyme judged to be greater than 95% pure by visual inspection of Coomassie-stained SDS-PAGE gels.
(§2) Kinetic data were used to characterize the activities of PASK enzyme samples derived without modification from baculovirus and following pre-phosphorylation in the presence of ATP. Enzyme activity was monitored using a synthetic substrate bearing the sequence NH2-[…]-CO2H (AMARA peptide, SEQ ID NO:9). The serine residue in this peptide is known to be phosphorylated by both AMPK and Snf1 [2], both of which are exceedingly similar in primary amino acid sequence to the catalytic domain of PASK. The three arginine residues located at the carboxyl terminus of the AMARA peptide allow avid binding to phosphocellulose paper, thereby facilitating quantitation of ^32P incorporation catalyzed by PASK from [γ-^32P]ATP. […] Moreover, lambda phosphatase treatment generated an enzyme which had 7-fold lower activity than the unmodified enzyme, and this treatment was fully reversible by allowing the enzyme to autophosphorylate in the presence of ATP.
(§3) PASK concentrations (0.5–2 μg/ml) were determined to have linear rates with respect to protein concentration and time. Kinetic constants were determined using peptide substrate concentrations between 0.06–1 mM. The data were fit to a non-linear Michaelis-Menten equation using the GraphPad Prism 2.0 program. Vmax values given are μmol/min/mg. NS indicates an SE less than 0.05.

Data set [2] deals with AMARA peptide. The format is biochemical, human. The conditions noted are these: for Vmax / Km: Pre-phosphorylated enzyme; for Vmax: peptide substrate; for Km: peptide substrate 0.06–1 mM; for Catalytic activity: baculovirus-expressed enzyme variant. As for the experimental part:
as §1, §2, §3

Data set [3] concerns the target T2, AMARA peptide (Homo sapiens, UniProt Q96RG2, F1266C/Y899H).
T2 construct: Compounds are checked for effects on both full length and truncated versions of PASK; His6 (N); made in house; host or cells: baculovirus-infected Sf-9 insect cells
The data set is classed as biochemical. The note with it: Untreated enzyme. As for the experimental part:
as §1, §2, §3

T2 sequence (Q96RG2 whole entry Y899H/F1266C, the tested form may be a part): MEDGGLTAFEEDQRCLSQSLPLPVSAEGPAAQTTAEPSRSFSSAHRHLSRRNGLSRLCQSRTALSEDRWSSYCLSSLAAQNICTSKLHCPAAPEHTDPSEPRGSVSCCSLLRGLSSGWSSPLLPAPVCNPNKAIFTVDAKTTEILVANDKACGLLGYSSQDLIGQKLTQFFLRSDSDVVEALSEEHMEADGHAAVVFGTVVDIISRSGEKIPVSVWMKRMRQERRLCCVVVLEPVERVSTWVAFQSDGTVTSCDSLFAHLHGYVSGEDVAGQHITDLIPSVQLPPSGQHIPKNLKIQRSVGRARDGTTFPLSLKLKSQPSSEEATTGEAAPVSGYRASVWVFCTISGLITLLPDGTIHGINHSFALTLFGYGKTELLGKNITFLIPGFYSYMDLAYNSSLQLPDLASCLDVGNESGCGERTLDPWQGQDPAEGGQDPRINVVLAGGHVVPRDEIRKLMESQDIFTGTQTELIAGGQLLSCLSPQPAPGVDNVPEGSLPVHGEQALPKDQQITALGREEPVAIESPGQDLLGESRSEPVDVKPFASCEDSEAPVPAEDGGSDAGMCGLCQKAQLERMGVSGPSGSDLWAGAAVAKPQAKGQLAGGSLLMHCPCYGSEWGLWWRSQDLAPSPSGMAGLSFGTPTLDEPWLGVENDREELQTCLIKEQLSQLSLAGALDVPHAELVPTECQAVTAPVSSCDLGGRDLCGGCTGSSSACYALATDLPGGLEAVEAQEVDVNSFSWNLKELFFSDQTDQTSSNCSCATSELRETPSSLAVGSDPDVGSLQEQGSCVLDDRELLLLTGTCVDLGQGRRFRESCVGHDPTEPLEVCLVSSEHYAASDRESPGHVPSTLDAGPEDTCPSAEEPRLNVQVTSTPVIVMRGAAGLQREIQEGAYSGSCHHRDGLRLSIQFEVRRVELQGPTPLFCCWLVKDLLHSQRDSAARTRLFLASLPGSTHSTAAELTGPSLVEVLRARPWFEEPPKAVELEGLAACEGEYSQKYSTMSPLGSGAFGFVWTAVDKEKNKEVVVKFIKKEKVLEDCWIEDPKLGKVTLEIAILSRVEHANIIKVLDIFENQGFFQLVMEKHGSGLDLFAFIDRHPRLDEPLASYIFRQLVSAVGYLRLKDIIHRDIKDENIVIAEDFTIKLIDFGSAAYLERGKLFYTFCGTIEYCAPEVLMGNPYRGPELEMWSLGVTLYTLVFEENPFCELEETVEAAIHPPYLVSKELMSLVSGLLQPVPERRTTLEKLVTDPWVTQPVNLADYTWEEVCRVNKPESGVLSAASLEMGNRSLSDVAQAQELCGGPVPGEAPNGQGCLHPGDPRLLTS

B1: PASK ΔN: truncated human PASK variant lacking both PAS domains, 948 amino-terminal residues removed, His6 tag (protein)
chain: SLPGSTHSTAAELTGPSLVEVLRARPWFEEPPKAVELEGLAACEGEYSQKYSTMSPLGSGAFGFVWTAVDKEKNKEVVVKFIKKEKVLEDCWIEDPKLGKVTLEIAILSRVEHANIIKVLDIFENQGFFQLVMEKHGSGLDLFAFIDRHPRLDEPLASYIFRQLVSAVGYLRLKDIIHRDIKDENIVIAEDFTIKLIDFGSAAYLERGKLFYTFCGTIEYCAPEVLMGNPYRGPELEMWSLGVTLYTLVFEENPFCELEETVEAAIHPPYLVSKELMSLVSGLLQPVPERRTTLEKLVTDPWVTQPVNLADYTWEEVCRVNKPESGVLSAASLEMGNRSLSDVAQAQELCGGPVPGEAPNGQGCLHPGDPRLLTS
modifications: left off: small tags and cut ends
notes: truncated human PASK variant lacking both PAS domains, 948 amino-terminal residues removed, His6 tag
As to B1, in the data set with AMARA peptide [1], the “catalytic rate constant (Vmax) higher than the native enzyme” value worked out at 18 fold. In addition, in the data set with AMARA peptide [2], the maximal velocity (Vmax) (commonly the top rate of the reaction or transport when substrate is in excess) came out at 2.8 µmol/min/mg and the Km (as a rule, the substrate concentration at which the rate is half of its maximum) amounted to 300 µM.

B2: K1028R: dominant negative human PASK, conserved lysine in ATP-binding region mutated to arginine (protein, UniProt Q96RG2 1-1323, looked up, variant K1028R)
PAS domain-containing …: MEDGGLTAFEEDQRCLSQSLPLPVSAEGPAAQTTAEPSRSFSSAHRHLSRRNGLSRLCQSRTALSEDRWSSYCLSSLAAQNICTSKLHCPAAPEHTDPSEPRGSVSCCSLLRGLSSGWSSPLLPAPVCNPNKAIFTVDAKTTEILVANDKACGLLGYSSQDLIGQKLTQFFLRSDSDVVEALSEEHMEADGHAAVVFGTVVDIISRSGEKIPVSVWMKRMRQERRLCCVVVLEPVERVSTWVAFQSDGTVTSCDSLFAHLHGYVSGEDVAGQHITDLIPSVQLPPSGQHIPKNLKIQRSVGRARDGTTFPLSLKLKSQPSSEEATTGEAAPVSGYRASVWVFCTISGLITLLPDGTIHGINHSFALTLFGYGKTELLGKNITFLIPGFYSYMDLAYNSSLQLPDLASCLDVGNESGCGERTLDPWQGQDPAEGGQDPRINVVLAGGHVVPRDEIRKLMESQDIFTGTQTELIAGGQLLSCLSPQPAPGVDNVPEGSLPVHGEQALPKDQQITALGREEPVAIESPGQDLLGESRSEPVDVKPFASCEDSEAPVPAEDGGSDAGMCGLCQKAQLERMGVSGPSGSDLWAGAAVAKPQAKGQLAGGSLLMHCPCYGSEWGLWWRSQDLAPSPSGMAGLSFGTPTLDEPWLGVENDREELQTCLIKEQLSQLSLAGALDVPHAELVPTECQAVTAPVSSCDLGGRDLCGGCTGSSSACYALATDLPGGLEAVEAQEVDVNSFSWNLKELFFSDQTDQTSSNCSCATSELRETPSSLAVGSDPDVGSLQEQGSCVLDDRELLLLTGTCVDLGQGRRFRESCVGHDPTEPLEVCLVSSEHYAASDRESPGHVPSTLDAGPEDTCPSAEEPRLNVQVTSTPVIVMRGAAGLQREIQEGAYSGSCYHRDGLRLSIQFEVRRVELQGPTPLFCCWLVKDLLHSQRDSAARTRLFLASLPGSTHSTAAELTGPSLVEVLRARPWFEEPPKAVELEGLAACEGEYSQKYSTMSPLGSGAFGFVWTAVDKEKNKEVVVRFIKKEKVLEDCWIEDPKLGKVTLEIAILSRVEHANIIKVLDIFENQGFFQLVMEKHGSGLDLFAFIDRHPRLDEPLASYIFRQLVSAVGYLRLKDIIHRDIKDENIVIAEDFTIKLIDFGSAAYLERGKLFYTFCGTIEYCAPEVLMGNPYRGPELEMWSLGVTLYTLVFEENPFCELEETVEAAIHPPYLVSKELMSLVSGLLQPVPERRTTLEKLVTDPWVTQPVNLADYTWEEVFRVNKPESGVLSAASLEMGNRSLSDVAQAQELCGGPVPGEAPNGQGCLHPGDPRLLTS
For the molecule B2, the Catalytic activity entry in the data set with AMARA peptide [2] is “completely inactive”.

B3: S1273-1289A: PASK mutant, all five serines simultaneously changed to alanine (protein)
chain: B2 PAS domain-containing … with Y899H, R1028K, F1266C, S1273A, S1277A, S1280A, S1287A, S1289A
modifications: left off: small tags and cut ends
notes: PASK mutant, all five serines simultaneously changed to alanine
B3: in the data set with AMARA peptide [2], the Vmax turned out to be 0.1 µmol/min/mg and the Km came to 200 µM.

B4: wildtype: His6-tagged human PASK enzyme expressed in baculovirus-infected Sf-9 cells (protein)
chain: B2 PAS domain-containing … with Y899H, R1028K, F1266C
modifications: left off: small tags and cut ends
notes: His6-tagged human PASK enzyme expressed in baculovirus-infected Sf-9 cells
On to B4, for which the Vmax in the data set with AMARA peptide [3] (peptide substrate) amounted to 0.1 µmol/min/mg; with AMARA peptide [2], 0.2 µmol/min/mg. Moreover, the Michaelis constant (Km) with AMARA peptide [3] (peptide substrate 0.06–1 mM) came to 1300 µM; in the data set on AMARA peptide [2], 200 µM.

B5: S1287,89A: PASK mutant, serine residues 1287 and 1289 changed to alanine (protein)
chain: B2 PAS domain-containing … with Y899H, R1028K, F1266C, S1287A, S1289A
modifications: left off: small tags and cut ends
notes: PASK mutant, serine residues 1287 and 1289 changed to alanine
With B5, in the data set on AMARA peptide [2], the Vmax came out at 0.1 µmol/min/mg and the Km came to 200 µM.

B6: T1165A: PASK mutant, threonine residue 1165 changed to alanine (protein, UniProt Q96RG2 1-1323, looked up, variant T1165A)
PAS domain-containing …: B2 PAS domain-containing … with R1028K, T1165A
Take B6: the Catalytic activity entry with AMARA peptide [2] was “Catalytically inactive”.

B7: S1149A: PASK mutant, serine residue 1149 changed to alanine (protein)
chain: B2 PAS domain-containing … with Y899H, R1028K, S1149A, F1266C
modifications: left off: small tags and cut ends
notes: PASK mutant, serine residue 1149 changed to alanine
As to B7, in the data set with AMARA peptide [2], the Vmax came out at 0.1 µmol/min/mg and the Km is 600 µM.

B8: S1273,77,80A: PASK mutant, serine residues 1273, 1277 and 1280 changed to alanine (protein)
chain: B2 PAS domain-containing … with Y899H, R1028K, F1266C, S1273A, S1277A, S1280A
modifications: left off: small tags and cut ends
notes: PASK mutant, serine residues 1273, 1277 and 1280 changed to alanine
With B8, in the data set on AMARA peptide [2], the Vmax was 0.4 µmol/min/mg and the Km was 300 µM.
